Measurements from the Immune Epitope Database (IEDB).

Tests used:
[1] = target: HLA-B*15:01; experiment: IEDB peptide-MHC binding, purified MHC/direct/fluorescence; filed as Kd, often an IC50 or EC50 that approximates it; ≥ and ≤ were set here for values at or beyond the usual limits of such assays
[2] = target: HLA-A*31:01; experiment: as above
[3] = target: HLA-A*69:01; experiment: as above
[4] = target: HLA-A*11:01; experiment: as above
[5] = target: HLA-B*07:02; experiment: as above
[6] = target: HLA-A*03:01; experiment: as above
[7] = target: HLA-A*24:03; experiment: as above
[8] = target: HLA-B*08:01; experiment: as above
[9] = target: HLA-B*27:05; experiment: as above
[10] = target: HLA-A*01:01; experiment: as above
[11] = target: HLA-A*02:01; experiment: as above
[12] = target: HLA-B*58:01; experiment: as above
[13] = target: HLA-B*40:01; experiment: as above
[14] = target: HLA-A*30:01; experiment: as above
[15] = target: HLA-A*26:01; experiment: as above
[16] = target: HLA-B*51:01; experiment: as above
[17] = target: HLA-B*57:01; experiment: as above; conditions: source organism: Mycobacterium tuberculosis
[18] = target: HLA-B*46:01; experiment: as above; conditions: source organism: Mycobacterium tuberculosis
[19] = target: HLA-A*29:02; experiment: as above
[20] = target: HLA-B*39:01; experiment: as above; conditions: source organism: Mycobacterium tuberculosis
[21] = target: HLA-B*48:01; experiment: as above; conditions: source organism: Mycobacterium tuberculosis
[22] = target: HLA-B*18:01; experiment: as above; conditions: source organism: Mycobacterium tuberculosis
[23] = target: HLA-B*44:02; experiment: as above; conditions: source organism: Mycobacterium tuberculosis
[24] = target: HLA-B*15:01; experiment: IEDB peptide-MHC binding, purified MHC/competitive/fluorescence; filed as Kd, often an IC50 or EC50 that approximates it; ≥ and ≤ were set here for values at or beyond the usual limits of such assays
[25] = target: HLA-B*51:01; experiment: as above
[26] = target: HLA-A*69:01; experiment: as above
[27] = target: HLA-B*57:01; experiment: as above
[28] = target: HLA-B*46:01; experiment: as above
[29] = target: HLA-B*27:03; experiment: as above
[30] = target: HLA-B*15:17; experiment: as above
[31] = target: HLA-A*02:01; experiment: as above
[32] = target: HLA-B*39:01; experiment: as above
[33] = target: HLA-B*18:01; experiment: as above
[34] = target: HLA-A*26:01; experiment: as above
[35] = target: HLA-A*68:02; experiment: IEDB peptide-MHC binding, purified MHC/direct/fluorescence; filed as Kd, often an IC50 or EC50 that approximates it; ≥ and ≤ were set here for values at or beyond the usual limits of such assays; conditions: source organism: Zaire ebolavirus
[36] = target: HLA-A*02:19; experiment: as above; conditions: source organism: Zaire ebolavirus
[37] = target: HLA-A*02:11; experiment: as above; conditions: source organism: Zaire ebolavirus
[38] = target: HLA-A*02:16; experiment: as above; conditions: source organism: Zaire ebolavirus
[39] = target: HLA-A*02:03; experiment: as above; conditions: source organism: Zaire ebolavirus
[40] = target: HLA-A*02:12; experiment: as above; conditions: source organism: Zaire ebolavirus
[41] = target: HLA-A*68:02; experiment: IEDB peptide-MHC binding, purified MHC/competitive/fluorescence; filed as Kd, often an IC50 or EC50 that approximates it; ≥ and ≤ were set here for values at or beyond the usual limits of such assays; conditions: source organism: Homo sapiens
[42] = target: HLA-A*02:19; experiment: as above; conditions: source organism: Homo sapiens
[43] = target: HLA-A*03:01; experiment: as above; conditions: source organism: Homo sapiens
[44] = target: HLA-A*02:12; experiment: as above; conditions: source organism: Homo sapiens
[45] = target: HLA-B*53:01; experiment: IEDB peptide-MHC binding, purified MHC/competitive/radioactivity; filed as Kd, often an IC50 or EC50 that approximates it; ≥ and ≤ were set here for values at or beyond the usual limits of such assays; conditions: source organism: Dengue virus 1 Brazil/97-11/1997
[46] = source organism: Corynebacterium efficiens
[47] = source organism: Corynebacterium glutamicum
[48] = source organism: Yersinia pestis
[49] = source organism: Mycobacterium tuberculosis
[50] = source organism: Haemophilus influenzae
[51] = source organism: Zaire ebolavirus

KLGDQFGRK
Kd [1, 46]: ≥ 20 µM | Kd [2, 47]: 4.37 µM | Kd [3, 46]: ≥ 20 µM | Kd [4, 47]: 0.07 µM | Kd [5, 46]: ≥ 20 µM | Kd [6, 47]: 0.242 µM | Kd [7, 46]: ≥ 20 µM | Kd [8, 46]: ≥ 20 µM | Kd [9, 46]: ≥ 20 µM | Kd [10, 46]: ≥ 20 µM | Kd [11, 46]: ≥ 20 µM | Kd [12, 46]: ≥ 20 µM | Kd [13, 46]: ≥ 20 µM | Kd [14, 47]: 1.49 µM | Kd [15, 46]: ≥ 20 µM

LPLEFWQAW
Kd ([1]; source organism: Yersinia enterocolitica subsp. enterocolitica 8081): ≥ 20 µM | Kd [16, 48]: ≥ 20 µM | Kd [5, 48]: 0.235 µM

QQDTNSAGL
Kd [1, 49]: ≥ 20 µM | Kd [2, 49]: ≥ 20 µM | Kd [3, 49]: ≥ 20 µM | Kd [17]: ≥ 20 µM | Kd [18]: ≥ 20 µM | Kd [5, 49]: ≥ 20 µM | Kd [6, 49]: ≥ 20 µM | Kd [19, 49]: ≥ 20 µM | Kd [9, 49]: ≥ 20 µM | Kd [10, 49]: ≥ 20 µM | Kd [20]: 0.301 µM | Kd [21]: ≥ 20 µM | Kd [12, 49]: ≥ 20 µM | Kd [22]: ≥ 20 µM | Kd [23]: ≥ 20 µM

MTMRRRLFK
Kd [1, 50]: ≥ 20 µM | Kd [2, 50]: 0.0202 µM | Kd [3, 50]: ≥ 20 µM | Kd [4, 50]: 0.0142 µM | Kd [5, 50]: ≥ 20 µM | Kd [6, 50]: 0.0531 µM | Kd [7, 50]: ≥ 20 µM | Kd [8, 50]: 5.63 µM | Kd [9, 50]: ≥ 20 µM | Kd [10, 50]: 14.5 µM | Kd [11, 50]: ≥ 20 µM | Kd [13, 50]: ≥ 20 µM | Kd [14, 50]: 0.00063 µM | Kd [15, 50]: ≥ 20 µM

AFHQLVQVI
Kd [24, 51]: ≥ 20 µM | Kd [25, 51]: ≥ 20 µM | Kd [26, 51]: ≥ 20 µM | Kd [27, 51]: ≥ 20 µM | Kd [28, 51]: ≥ 20 µM | Kd [29, 51]: ≥ 20 µM | Kd [30, 51]: ≥ 20 µM | Kd [31, 51]: ≥ 20 µM | Kd [32, 51]: ≥ 20 µM | Kd [33, 51]: ≥ 20 µM | Kd [34, 51]: ≥ 20 µM | Kd [35]: ≥ 20 µM | Kd [36]: ≥ 20 µM | Kd [37]: ≥ 20 µM | Kd [38]: ≥ 20 µM | Kd [6, 51]: ≥ 20 µM | Kd ([7]; source organism: Reston ebolavirus - Reston): 0.0021 µM | Kd [39]: ≥ 20 µM | Kd [40]: ≥ 20 µM | Kd [19, 51]: ≥ 20 µM

SLFNWLWYE
Kd ([24]; source organism: Homo sapiens): ≥ 20 µM | Kd [41]: ≥ 20 µM | Kd ([25]; source organism: Homo sapiens): ≥ 20 µM | Kd [42]: ≥ 20 µM | Kd ([26]; source organism: Homo sapiens): ≥ 20 µM | Kd ([27]; source organism: Homo sapiens): ≥ 20 µM | Kd ([28]; source organism: Homo sapiens): ≥ 20 µM | Kd [43]: ≥ 20 µM | Kd ([29]; source organism: Homo sapiens): ≥ 20 µM | Kd ([30]; source organism: Homo sapiens): ≥ 20 µM | Kd [44]: ≥ 20 µM | Kd ([31]; source organism: Homo sapiens): 0.196 µM | Kd ([32]; source organism: Homo sapiens): ≥ 20 µM | Kd ([33]; source organism: Homo sapiens): ≥ 20 µM | Kd ([34]; source organism: Homo sapiens): ≥ 20 µM

CPTQGEATL
Kd ([16]; source organism: Dengue virus): ≥ 20 µM | Kd [45]: 0.0199 µM
